From PMC1885643 (Nucleic Acids Research, 2007)
Where two headings read alike, the source gives them in different places.

T1: FLAG-hRad9 (human, UniProt Q99638 1-391)
T1 sequence (looked up): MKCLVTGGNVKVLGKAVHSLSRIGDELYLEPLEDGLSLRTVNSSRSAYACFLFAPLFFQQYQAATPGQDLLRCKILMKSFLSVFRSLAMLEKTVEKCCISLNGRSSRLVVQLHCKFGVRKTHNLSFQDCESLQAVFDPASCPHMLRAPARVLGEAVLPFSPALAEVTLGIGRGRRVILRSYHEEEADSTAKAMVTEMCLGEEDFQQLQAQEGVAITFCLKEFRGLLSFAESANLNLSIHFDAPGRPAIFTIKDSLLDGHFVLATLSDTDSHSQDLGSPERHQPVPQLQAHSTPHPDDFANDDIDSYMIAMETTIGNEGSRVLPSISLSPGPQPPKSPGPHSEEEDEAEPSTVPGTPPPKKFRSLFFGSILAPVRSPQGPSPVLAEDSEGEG

B1: FLAG-hRad1 (natural protein, human, UniProt O60671 1-282, looked up)
chain: MPLLTQQIQDEDDQYSLVASLDNVRNLSTILKAIHFREHATCFATKNGIKVTVENAKCVQANAFIQAGIFQEFKVQEESVTFRINLTVLLDCLSIFGSSPMPGTLTALRMCYQGYGYPLMLFLEEGGVVTVCKINTQEPEETLDFDFCSTNVINKIILQSEGLREAFSELDMTSEVLQITMSPDKPYFRLSTFGNAGSSHLDYPKDSDLMEAFHCNQTQVNRYKISLLKPSTKALVLSCKVSIRTDNRGFLSLQYMIRNEDGQICFVEYYCCPDEEVPESES

Assays:
[1] = biological target: GST-hNEIL1 (residues 1–390) (human, UniProt Q96FI4 1-390); assay: pull-down
FLAG-hRad9 = biological target: T1, FLAG-hRad9; assay: SEC
[2] = biological target: T2, processed intact hNEIL1 (residues 2–390) (human, UniProt Q96FI4 2-390); assay: pull-down
[3] = biological target: T3, hNEIL1-CΔ40 (residues 2–350) (human, UniProt Q96FI4 2-350); assay: pull-down
[4] = biological target: T2, processed intact hNEIL1 (residues 2–390); assay: pull-down; remark: listed apart in the source
[5] = biological target: T3, hNEIL1-CΔ40 (residues 2–350); assay: pull-down; remark: listed apart in the source
FLAG-hRad1 = biological target: B1; assay: SEC

T2 sequence (Q96FI4 2-390): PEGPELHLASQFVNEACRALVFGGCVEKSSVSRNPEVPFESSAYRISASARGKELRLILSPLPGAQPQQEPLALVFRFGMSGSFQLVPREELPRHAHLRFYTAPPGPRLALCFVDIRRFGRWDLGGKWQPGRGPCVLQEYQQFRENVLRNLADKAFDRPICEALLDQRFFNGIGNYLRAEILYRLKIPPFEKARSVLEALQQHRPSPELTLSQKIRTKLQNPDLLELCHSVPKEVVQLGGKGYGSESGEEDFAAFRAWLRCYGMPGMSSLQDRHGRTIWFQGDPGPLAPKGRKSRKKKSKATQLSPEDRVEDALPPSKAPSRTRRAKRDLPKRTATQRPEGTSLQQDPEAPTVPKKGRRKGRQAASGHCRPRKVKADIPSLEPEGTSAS
T3 sequence (Q96FI4 2-350, stated change not applied): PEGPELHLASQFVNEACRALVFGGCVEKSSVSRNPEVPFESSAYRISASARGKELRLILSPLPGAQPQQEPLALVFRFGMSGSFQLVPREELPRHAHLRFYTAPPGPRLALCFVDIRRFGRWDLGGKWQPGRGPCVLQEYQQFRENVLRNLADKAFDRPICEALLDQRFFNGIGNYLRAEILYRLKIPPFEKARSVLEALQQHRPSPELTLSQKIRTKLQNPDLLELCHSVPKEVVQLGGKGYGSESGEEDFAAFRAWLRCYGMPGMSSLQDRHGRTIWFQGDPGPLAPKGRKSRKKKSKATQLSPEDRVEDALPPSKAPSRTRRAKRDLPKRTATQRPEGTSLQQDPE
Chain of GST-hNEIL1 (residues 1–390) (Q96FI4 whole entry, the tested form may be a part): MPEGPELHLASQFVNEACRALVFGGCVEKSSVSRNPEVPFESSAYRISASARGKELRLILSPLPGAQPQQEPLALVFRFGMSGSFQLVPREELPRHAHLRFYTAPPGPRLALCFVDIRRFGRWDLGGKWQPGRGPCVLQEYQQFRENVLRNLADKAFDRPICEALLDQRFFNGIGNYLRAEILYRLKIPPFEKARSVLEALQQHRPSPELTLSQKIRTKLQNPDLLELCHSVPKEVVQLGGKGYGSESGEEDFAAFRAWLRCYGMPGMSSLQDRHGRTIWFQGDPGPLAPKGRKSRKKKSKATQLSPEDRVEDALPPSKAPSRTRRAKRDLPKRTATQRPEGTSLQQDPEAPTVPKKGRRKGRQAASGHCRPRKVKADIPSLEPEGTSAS

Binder	binding result [1]	binding result (FLAG-hRad9)	binding result [2]	binding result [3]	further results
B1	binds	binds	–	–	–
GST-hRad1 (natural protein, human, UniProt O60671 1-282, looked up) MPLLTQQIQDEDDQYSLVASLDNVRNLSTILKAIHFREHATCFATKNGIKVTVENAKCVQANAFIQAGIFQEFKVQEESVTFRINLTVLLDCLSIFGSSPMPGTLTALRMCYQGYGYPLMLFLEEGGVVTVCKINTQEPEETLDFDFCSTNVINKIILQSEGLREAFSELDMTSEVLQITMSPDKPYFRLSTFGNAGSSHLDYPKDSDLMEAFHCNQTQVNRYKISLLKPSTKALVLSCKVSIRTDNRGFLSLQYMIRNEDGQICFVEYYCCPDEEVPESES	–	–	binds	binds	–
GST-hHus1 (natural protein, human, UniProt O60921 1-280, looked up) MKFRAKIVDGACLNHFTRISNMIAKLAKTCTLRISPDKLNFILCDKLANGGVSMWCELEQENFFNEFQMEGVSAENNEIYLELTSENLSRALKTAQNARALKIKLTNKHFPCLTVSVELLSMSSSSRIVTHDIPIKVIPRKLWKDLQEPVVPDPDVSIYLPVLKTMKSVVEKMKNISNHLVIEANLDGELNLKIETELVCVTTHFKDLGNPPLASESTHEDRNVEHMAEVHIDIRKLLQFLAGQQVNPTKALCNIVNNKMVHFDLLHEDVSLQYFIPALS	–	–	binds	binds	–
His-tagged hHus1 (natural protein, human, UniProt O60921 1-280, looked up) MKFRAKIVDGACLNHFTRISNMIAKLAKTCTLRISPDKLNFILCDKLANGGVSMWCELEQENFFNEFQMEGVSAENNEIYLELTSENLSRALKTAQNARALKIKLTNKHFPCLTVSVELLSMSSSSRIVTHDIPIKVIPRKLWKDLQEPVVPDPDVSIYLPVLKTMKSVVEKMKNISNHLVIEANLDGELNLKIETELVCVTTHFKDLGNPPLASESTHEDRNVEHMAEVHIDIRKLLQFLAGQQVNPTKALCNIVNNKMVHFDLLHEDVSLQYFIPALS	–	–	–	–	binding result [4]: binds; binding result [5]: binds
FLAG-hHus1 (natural protein, human, UniProt O60921 1-280, looked up) MKFRAKIVDGACLNHFTRISNMIAKLAKTCTLRISPDKLNFILCDKLANGGVSMWCELEQENFFNEFQMEGVSAENNEIYLELTSENLSRALKTAQNARALKIKLTNKHFPCLTVSVELLSMSSSSRIVTHDIPIKVIPRKLWKDLQEPVVPDPDVSIYLPVLKTMKSVVEKMKNISNHLVIEANLDGELNLKIETELVCVTTHFKDLGNPPLASESTHEDRNVEHMAEVHIDIRKLLQFLAGQQVNPTKALCNIVNNKMVHFDLLHEDVSLQYFIPALS	binds	binds	–	–	binding result (FLAG-hRad1): binds
